Where a chain is given by its changes, count along the chain named.
B1: Example 229 (peptide)
peptide: YXEGTXTSDXSIXLDXIAQXEFIXXLIKGGPSSGAPPPSK
modifications: Y-Aib-EGT-αMeF(2F)-TSD-4Pal-SI-αMeL-LD-Orn-IAQ-Aib-EFI-(D-Glu)-αMeY-LIK((2-[2-(2-Amino-ethoxy)-ethoxy]-acetyl)3-(γ-Glu)-CO-(CH2)12-CO2H)GGPSSGAPPPSK((2-[2-(2-Amino-ethoxy)-ethoxy]-acetyl)3-(γ-Glu)-CO-(CH2)12-CO2H)-NH2
B2: Example 220 (peptide)
peptide: YXEGTXTSDXXIXLDXIAQXKFIXXLIKGGPSSGAPPPS
modifications: Y-Aib-EGT-αMeF(2F)-TSD-4Pal-Aib-I-αMeL-LD-Orn-IAQ-Aib-K((2-[2-(2-Amino-ethoxy)-ethoxy]-acetyl)2-(γ-Glu)-CO-(CH2)12-CO2H)FI-(D-Glu)-αMeY-LIK((2-[2-(2-Amino-ethoxy)-ethoxy]-acetyl)2-(γ-Glu)-CO-(CH2)12-CO2H)GGPSSGAPPPS-NH2
B3: Example 244 (peptide)
peptide: B2 peptide with I17K, K21E
modifications: Y-Aib-EGT-αMeF(2F)-TSD-4Pal-Aib-I-αMeL-LD-Orn-K((2-[2-(2-Amino-ethoxy)-ethoxy]-acetyl)2-(γ-Glu)-(10-(4-carboxyphenoxy)decanoyl))AQ-Aib-EFI-(D-Glu)-αMeY-LIK((2-[2-(2-Amino-ethoxy)-ethoxy]-acetyl)2-(γ-Glu)-(10-(4-carboxyphenoxy)decanoyl))GGPSSGAPPPS-NH2
B4: Example 231 (peptide)
peptide: B2 peptide with X10Y, I17K, K21E
modifications: Y-Aib-EGT-αMeF(2F)-TSDY-Aib-I-αMeL-LD-Orn-K((2-[2-(2-Amino-ethoxy)-ethoxy]-acetyl)2-(γ-Glu)-CO-(CH2)12-CO2H)AQ-Aib-EFI-(D-Glu)-αMeY-LIK((2-[2-(2-Amino-ethoxy)-ethoxy]-acetyl)2-(γ-Glu)-CO-(CH2)12-CO2H)GGPSSGAPPPS-NH2
B5: Example 230 (peptide)
peptide: B2 peptide with X10Y, I17K, K28E
modifications: Y-Aib-EGT-αMeF(2F)-TSDY-Aib-I-αMeL-LD-Orn-K((2-[2-(2-Amino-ethoxy)-ethoxy]-acetyl)2-(γ-Glu)-CO-(CH2)12-CO2H)AQ-Aib-K((2-[2-(2-Amino-ethoxy)-ethoxy]-acetyl)2-(γ-Glu)-CO-(CH2)12-CO2H)FI-(D-Glu)-αMeY-LIEGGPSSGAPPPS-NH2

Experiments:
Assay in all cases: cell-based or functional assay
[1] = biological target: T1, human glucose-dependent insulinotropic polypeptide (GIP) receptor (human) (UniProt P48546)
T1 sequence (looked up): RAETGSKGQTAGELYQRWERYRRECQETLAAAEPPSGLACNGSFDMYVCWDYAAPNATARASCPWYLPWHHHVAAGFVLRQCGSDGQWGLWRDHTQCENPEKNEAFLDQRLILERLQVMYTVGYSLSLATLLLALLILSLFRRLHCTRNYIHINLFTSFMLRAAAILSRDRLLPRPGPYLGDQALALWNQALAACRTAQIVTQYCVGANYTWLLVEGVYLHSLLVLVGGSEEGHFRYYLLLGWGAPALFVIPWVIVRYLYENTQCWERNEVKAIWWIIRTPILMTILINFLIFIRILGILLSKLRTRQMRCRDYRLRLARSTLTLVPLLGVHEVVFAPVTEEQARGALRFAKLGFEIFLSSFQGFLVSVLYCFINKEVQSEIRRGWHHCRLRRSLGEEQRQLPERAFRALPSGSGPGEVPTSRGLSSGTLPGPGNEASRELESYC

[2] = biological target: human glucagon receptor (human) (UniProt P47871)
[3] = biological target: human glucagon-like peptide-1 (GLP-1) receptor (human) (UniProt P43220)
human glucagon receptor = human glucagon receptor (human, UniProt P47871 26-477)
human GIP receptor = biological target: T2, human GIP receptor (human, UniProt P48546 22-466)
T2 sequence (looked up): T1 sequence (looked up)

human GLP-1 receptor = human GLP-1 receptor (human, UniProt P43220 24-463)

Binder	cAMP EC50 [1] [nM]	cAMP Emax [1] [%]	cAMP EC50 [2] [nM]	cAMP EC50 [3] [nM]	cAMP Emax [3] [%]	cAMP EC50 (1.0% HSA) (human glucagon receptor) [nM]	cAMP EC50 (1.0% HSA) (human GIP receptor) [nM]	cAMP Emax (1.0% HSA) (human GIP receptor) [%]	cAMP EC50 (1.0% HSA) (human GLP-1 receptor) [nM]	cAMP Emax (1.0% HSA) (human GLP-1 receptor) [%]
B1	0.0253	103	> 9950	2.25	94.3	> 9950	7.35	80.5	135	99
B2	0.0237	91.6	> 9950	0.535	87.6	> 9950	11.6	83.5	150	110
B3	0.0218	101	> 9950	2.25	104		0.983		30.8	
B4	0.0184	102	> 9950	1.22	107	> 9950	2.46	85.4	51.8	
B5	0.0199	105	> 9950	0.726	90.3	> 9950	2.57	85.8	49.7	
